The assay concerns the target T1, GST-fusion HMGB1 protein (Wister rat HMGB1, full length, expressed from pGEX-3X) (rat (Wister), UniProt P63159 2-215).
T1 construct: mature; GST served as the negative control protein in screening; also called HMGB1 solid-phase plate; not shown: glutathione S-transferase (GST) tag of the pGEX-3X vector
T1 sequence (looked up): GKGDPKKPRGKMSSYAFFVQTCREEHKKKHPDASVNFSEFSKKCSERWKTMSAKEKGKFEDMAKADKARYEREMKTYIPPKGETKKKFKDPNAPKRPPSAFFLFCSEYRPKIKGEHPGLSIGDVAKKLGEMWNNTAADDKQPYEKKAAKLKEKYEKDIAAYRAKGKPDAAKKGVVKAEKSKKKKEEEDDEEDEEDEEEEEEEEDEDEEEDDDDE
Kind of assay: ELISA on GST-fusion HMGB1 and SPR (FIGS. 1A and 1B). Here is the method: Then, to select anti-HMGB1 monoclonal antibodies, the ELISA method was carried out as described below. First, part of the culture solution after 2 weeks was sampled and added in […] to a microplate in which 250 ng/well of the HMGB1 protein or the negative control protein (GST) was immobilized. Subsequently, reaction was carried out at room temperature for 1 hour, followed by washing with PBS three times. A secondary antibody (HRP-labeled anti-mouse IgG, manufactured by MEDICAL & BIOLOGICAL LABORATORIES CO., LTD., code number 330) was diluted in accordance with the package insert and added in 50 μL/well, which was reacted for one hour at room temperature, followed by washing with PBS three times after the reaction. Thereafter, a TMB reagent (MOSS, Inc., Chicago, Ill., USA, USA) was added in 50 μL/well, followed by enzyme chromogenic reaction for 15 minutes. Subsequently, after the enzyme reaction was stopped with 1.5 N phosphoric acid, the absorbance was measured with a plate reader with 450 nm (reference 630 nm) to select clones that reacts specifically with the HMGB1 solid-phase plate, establishing anti-HMGB1 monoclonal antibodies.

B1: anti-HMGB1 monoclonal antibody (2C8C) (antibody, V domains shown)
VH: QVQLQQSGPELVKPGASVKLSCKASGYTFTDYTIHWVKQSPGQGLEWIGWIYPGSGNTKYNDKFKGKATMTADKSSSTAYMQLSSLTSEDSAVYFCARGFAYWGQGTLVTVSA
VL: DIVLTQSPATLSVTPGDSVSLSCRASQSISNNLHWYQQKSHESPRLLIKYASQSISGIPSRFSGSGSGTDFTLSINSVETEDFGMYFCQQTNSWPLTFGAGTKLELK
notes: also called 2C8C antibody; clone 2C8C
On to B1, for which the binding result is given as “binds”.

The values are drawn from patent US20190211092A1 (NATIONAL UNIVERSITY CORPORATION TOKYO MEDICAL AND DENTAL …, published 2019).
